Measured values published in patent publication US20240270846A1 (published 2024).
Positions count from the first letter of the chain named. Names may count otherwise.

T1: cynomolgus monkey CD137 (cynomolgus monkey, UniProt Q07011 24-186 (human entry), limits assumed)
T1 construct: Soluble analyte in the Biacore assay; also called cyno CD137
T1 chain: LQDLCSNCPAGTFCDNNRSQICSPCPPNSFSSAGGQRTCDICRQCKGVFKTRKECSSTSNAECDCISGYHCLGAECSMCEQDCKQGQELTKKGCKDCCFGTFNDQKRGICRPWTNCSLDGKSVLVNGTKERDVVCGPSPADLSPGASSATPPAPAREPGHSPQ

B1: dBBDu_186 / dBBDu_L098 (antibody, human IgG1, V domains shown)
VH: QVQLVESGGGLVQPGRSLRLSCAASGFTFSNAWMHWVRQAPGKGLEWVAQIKDRSNQYATYYAPSVKGRFTISRDDSKNSIYLQMNSLKTEDTAVYYCHYVHYAQASTVLPAFGVDAWGQGTTVTVSS
VL: DIVMTQSPLSLPVTPGEPASISCAASEELVHINRYIFLHWYQQKPGQAPRLLIYKVSNRFIGVPDRFSGSGSGTDFTLKISRVEAEDVGVYYCAQGSQVPFTFGQGTKLEIK
notes: Tested as IgG (human IgG1 constant region, kappa light chain); also called dBBDu186/L098
B2: GLS3000 G89V one-amino acid altered one-arm antibody (CE115HA000-pE22Hh / Kn010G3 / GLS3000 G89V-kappa) (antibody, human IgG1, kappa, L234A L235A, N297A, name in Kabat numbering)
heavy: QVQLVESGGGVVQPGRSLRLSCAASGFTFSNAWMHWVRQAPGKGLEWVAQIKAKSNNYATYYAESVKGRFTISRDDSKNSLYLQMNSLKTEDTAVYYCRYVHYGAYYGVDAWGQGTTVTVSSASTKGPSVFPLAPSSKSTSGGTAALGCLVKDYFPEPVTVSWNSGALTSGVHTFPAVLQSSGLYSLSSVVTVPSSSLGTQTYICNVNHKPSNTKVDKKVEPKSCDKTHTCPPCPAPEAAGGPSVFLFPPKPKDTLMISRTPEVTCVVVDVSHEDPEVKFNWYVDGVEVHNAKTKPREEQYASTYRVVSVLTVLHQDWLNGKEYKCKVSNKALPAPIEKTISKAKGQPREPQVYTLPPSRCELTKNQVSLSCAVKGFYPSDIAVEWESNGQPENNYKTTPPVLDSDGSFFLVSKLTVDKSRWQQGNVFSCSVMHEALHNHYTQKSLSLSPDYKDDDDK
chain: EPKSSDKTHTCPPCPAPELLGGPSVFLFPPKPKDTLMISRTPEVTCVVVDVSHEDPEVKFNWYVDGVEVHNAKTKPREEQYNSTYRVVSVLTVLHQDWLNGKEYKCKVSNKALPAPIEKTISKAKGQPREPQVCTLPPSRDELTKNQVSLWCLVKGFYPSDIAVEWESNGQPENNYKTTPPVLDSDGSFFLYSKLTVDKSRWQQGNVFSCSVMHEALHNRYTQKSLSLSP
light: DIVMTQSPLSLPVTPGEPASISCRSSQSLVHSNRNTYLHWYQQKPGQAPRLLIYKVSNRFSGVPDRFSGSGSGTDFTLKISRVEAEDVGVYYCVQGTQVPYTFGQGTKLEIKRTVAAPSVFIFPPSDEQLKSGTASVVCLLNNFYPREAKVQWKVDNALQSGNSQESVTEQDSKDSTYSLSSTLTLSKADYEKHKVYACEVTHQGLSSPVTKSFNRGEC
notes: One-arm antibody; substitution position in Kabat numbering; also called L chain altered form, Kabat 89 G to V
B3: GLS3000 G89Y one-amino acid altered one-arm antibody (CE115HA000-pE22Hh / Kn010G3 / GLS3000 G89Y-kappa) (antibody, human IgG1, kappa, L234A L235A, N297A, name in Kabat numbering)
heavy: B2 heavy
chain: B2 chain
light: B2 light with V94Y
notes: One-arm antibody; substitution position in Kabat numbering; also called L chain altered form, Kabat 89 G to Y
B4: GLS3000 G91P one-amino acid altered one-arm antibody (CE115HA000-pE22Hh / Kn010G3 / GLS3000 G91P-kappa) (antibody, human IgG1, kappa, L234A L235A, N297A, name in Kabat numbering)
heavy: B2 heavy
chain: B2 chain
light: B2 light with V94G, G96P
notes: One-arm antibody; substitution position in Kabat numbering; also called L chain altered form, Kabat 91 G to P
B5: GLS3000 R77S one-amino acid altered one-arm antibody (CE115HA000-pE22Hh / Kn010G3 / GLS3000 R77S-kappa) (antibody, human IgG1, kappa, L234A L235A, N297A, name in Kabat numbering)
heavy: B2 heavy
chain: B2 chain
light: B2 light with R82S, V94G
notes: One-arm antibody; substitution position in Kabat numbering; also called L chain altered form, Kabat 77 R to S
B6: GLS3000 T92S one-amino acid altered one-arm antibody (CE115HA000-pE22Hh / Kn010G3 / GLS3000 T92S-kappa) (antibody, human IgG1, kappa, L234A L235A, N297A, name in Kabat numbering)
heavy: B2 heavy
chain: B2 chain
light: B2 light with V94G, T97S
notes: One-arm antibody; substitution position in Kabat numbering; also called L chain altered form, Kabat 92 T to S
B7: GLS3000 Q90S one-amino acid altered one-arm antibody (CE115HA000-pE22Hh / Kn010G3 / GLS3000 Q90S-kappa) (antibody, human IgG1, kappa, L234A L235A, N297A, name in Kabat numbering)
heavy: B2 heavy
chain: B2 chain
light: B2 light with V94G, Q95S
notes: One-arm antibody; substitution position in Kabat numbering; also called L chain altered form, Kabat 90 Q to S
B8: GLS3000 V94R one-amino acid altered one-arm antibody (CE115HA000-pE22Hh / Kn010G3 / GLS3000 V94R-kappa) (antibody, human IgG1, kappa, L234A L235A, N297A, name in Kabat numbering)
heavy: B2 heavy
chain: B2 chain
light: B2 light with V94G, V99R
notes: One-arm antibody; substitution position in Kabat numbering; also called L chain altered form, Kabat 94 V to R
B9: GLS3000 G89W one-amino acid altered one-arm antibody (CE115HA000-pE22Hh / Kn010G3 / GLS3000 G89W-kappa) (antibody, human IgG1, kappa, L234A L235A, N297A, name in Kabat numbering)
heavy: B2 heavy
chain: B2 chain
light: B2 light with V94W
notes: One-arm antibody; substitution position in Kabat numbering; also called L chain altered form, Kabat 89 G to W
B10: GLS3000 G91T one-amino acid altered one-arm antibody (CE115HA000-pE22Hh / Kn010G3 / GLS3000 G91T-kappa) (antibody, human IgG1, kappa, L234A L235A, N297A, name in Kabat numbering)
heavy: B2 heavy
chain: B2 chain
light: B2 light with V94G, G96T
notes: One-arm antibody; substitution position in Kabat numbering; also called L chain altered form, Kabat 91 G to T
B11: GLS3000 Q93R one-amino acid altered one-arm antibody (CE115HA000-pE22Hh / Kn010G3 / GLS3000 Q93R-kappa) (antibody, human IgG1, kappa, L234A L235A, N297A, name in Kabat numbering)
heavy: B2 heavy
chain: B2 chain
light: B2 light with V94G, Q98R
notes: One-arm antibody; substitution position in Kabat numbering; also called L chain altered form, Kabat 93 Q to R
B12: GLS3000 V94S one-amino acid altered one-arm antibody (CE115HA000-pE22Hh / Kn010G3 / GLS3000 V94S-kappa) (antibody, human IgG1, kappa, L234A L235A, N297A, name in Kabat numbering)
heavy: B2 heavy
chain: B2 chain
light: B2 light with V94G, V99S
notes: One-arm antibody; substitution position in Kabat numbering; also called L chain altered form, Kabat 94 V to S
B13: GLS3000 Q93S one-amino acid altered one-arm antibody (CE115HA000-pE22Hh / Kn010G3 / GLS3000 Q93S-kappa) (antibody, human IgG1, kappa, L234A L235A, N297A, name in Kabat numbering)
heavy: B2 heavy
chain: B2 chain
light: B2 light with V94G, Q98S
notes: One-arm antibody; substitution position in Kabat numbering; also called L chain altered form, Kabat 93 Q to S

What follows are binders tested against T2, human CD137 (human, UniProt Q07011 24-186) (assay: SPR Biacore T200, IgG captured on protein A, antigen as analyte, 25 C;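 further: antigens flowed over a CM3 chip for 120 s association, KD derived from ka and kd, running buffer (ACES, NaCl, Tween20, pH 7.4) served as blank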).
T2 construct: Soluble analyte in the Biacore assay; also called 4-1BB; hCD137
T2 sequence (Q07011 24-186 limits assumed): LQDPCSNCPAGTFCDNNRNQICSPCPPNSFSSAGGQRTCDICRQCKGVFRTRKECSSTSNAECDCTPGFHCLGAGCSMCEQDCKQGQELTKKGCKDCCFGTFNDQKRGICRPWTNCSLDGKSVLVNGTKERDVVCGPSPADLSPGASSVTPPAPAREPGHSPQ
Procedure: (§1) Sensor chip CM3 (GE Healthcare) was immobilized with an appropriate amount of sure protein A (GE Healthcare) by amine coupling. The selected antibodies were captured by the chip to allow interaction to human CD3ed, human CD137 and cyno CD137 as an antigen. The running buffer used was 20 mmol/l ACES, 150 mmol/l NaCl, 0.05% (w/v) Tween20, pH 7.4. All measurements were carried out at 25 degrees C. The antigens were diluted using the running buffer.
(§2) Diluted antigen solutions and the running buffer which is the blank were loaded at a flow rate of 30 micro L/min for 120 seconds to allow each of the antigens to interact with the antibody captured on the sensor chip. […] Next, to regenerate the sensor chip, 10 mmol/L glycine-HCl, pH 1.5 was loaded at a flow rate of 30 micro L/min for 30 seconds and 50 mmol/L NaOH was loaded at a flow rate 30 micro L/min for 30 seconds.
(§3) Kinetic parameters such as the association rate constant ka (1/Ms) and the dissociation rate constant kd (1/s) were calculated based on the sensorgrams obtained by the measurements. The dissociation constant KD(M) was calculated from these constants. Each parameter was calculated using the Biacore T200 Evaluation Software (GE Healthcare).
In the case of B1, the Kd is reported as 2310 nM, the koff is reported as 0.000534 s⁻¹ and the kon is reported as 231 M⁻¹ s⁻¹.

Target: T1, cynomolgus monkey CD137
Experiment: as above
Procedure: as §1, §2, §3
B1 showed a Kd of 134000 nM and a koff of 0.00119 s⁻¹.

These binders were tested against T3, human CD3ed (human, UniProt P07766 23-126; P04234 22-105, limits assumed) in the same assay as above.
T3 construct: The construct injected as 'human CD3ed' in the Biacore assay is not defined; also called human CD3 epsilon/delta heterodimer
T3 sequence (P07766 23-126 limits assumed, chain 1 of 2): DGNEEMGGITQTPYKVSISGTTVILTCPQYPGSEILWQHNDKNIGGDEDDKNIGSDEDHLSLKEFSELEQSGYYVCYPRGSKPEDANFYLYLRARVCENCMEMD
T3 sequence (P04234 22-105 limits assumed, chain 2 of 2): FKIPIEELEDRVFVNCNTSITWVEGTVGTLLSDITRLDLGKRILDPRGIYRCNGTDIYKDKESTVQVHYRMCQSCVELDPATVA
Procedure: as §1, §2, §3
With B1 the Kd was 1880 nM, the koff was 0.0209 s⁻¹ and the kon was 11100 M⁻¹ s⁻¹.

What follows are binders tested against T4, CD3 epsilon homodimer protein (UniProt P07766 23-126) (assay: SPR Biacore T200, CD3 epsilon homodimer immobilised on CM4, one-arm antibody as analyte, single-cycle kinetics; reference unaltered GLS3000 antibody;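 further: CD3 epsilon homodimer attached to the CM4 chip via amine coupling, measured at 25 °C with HBS-EP+ as running buffer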).
T4 construct: also called CD3 (CD3 epsilon)
T4 sequence (P07766 23-126): as the sequence (P07766 23-126 limits assumed, chain 1 of 2) above
Procedure: An appropriate amount of CD3 epsilon homodimer protein was immobilized onto Sensor chip CM4 (GE Healthcare Japan Corp.) by the amine coupling method. Then, the antibody having an appropriate concentration was injected thereto as an analyte and allowed to interact with the CD3 epsilon homodimer protein on the sensor chip. Then, the sensor chip was regenerated by the injection of 10 mmol/L glycine-HCl (pH 1.5). The assay was conducted at 25 degrees C., and HBS-EP+(GE Healthcare Japan Corp.) was used as a running buffer. […] Each parameter was calculated using Biacore T200 Evaluation Software (GE Healthcare Japan Corp.).
Specifically, when the amount of the GLS3000-containing antibody bound was defined as X and the amount of the L chain one-amino acid altered form bound was defined as Y, a value of Z (ratio of amounts bound)=Y/X was used.
B2 was tested, and the “dissociation constant KD(M) ratio of L chain altered form to GLS3000” value (“dissociation constant KD(M) ratio” for short) was 1.4 ratio. B3 was tested, and the “dissociation constant KD(M) ratio” value was 1.12 ratio. With B4 the “dissociation constant KD(M) ratio” value was 23.1 ratio. In the case of B5, the “dissociation constant KD(M) ratio” value is reported as 0.94 ratio. B6 was tested, and the “dissociation constant KD(M) ratio” value was 0.81 ratio. With B7 the “dissociation constant KD(M) ratio” value was 0.96 ratio. In the case of B8, the “dissociation constant KD(M) ratio” value is reported as 1.11 ratio. B9 was tested, and the “dissociation constant KD(M) ratio” value was 2.2 ratio. B10 was tested, and the “dissociation constant KD(M) ratio” value was 39.9 ratio. In the case of B11, the “dissociation constant KD(M) ratio” value is reported as 0.79 ratio. For B12, the “dissociation constant KD(M) ratio” value was 0.81 ratio. In the case of B13, the “dissociation constant KD(M) ratio” value is reported as 0.75 ratio.
